One test concerns the target T1, VPS41-Flag (human, UniProt P49754 1-854).
T1 construct: VPS41, human, cloned from human cDNA (293T cells); also called V41; not shown: Flag, C-terminal, kept
T1 sequence (looked up): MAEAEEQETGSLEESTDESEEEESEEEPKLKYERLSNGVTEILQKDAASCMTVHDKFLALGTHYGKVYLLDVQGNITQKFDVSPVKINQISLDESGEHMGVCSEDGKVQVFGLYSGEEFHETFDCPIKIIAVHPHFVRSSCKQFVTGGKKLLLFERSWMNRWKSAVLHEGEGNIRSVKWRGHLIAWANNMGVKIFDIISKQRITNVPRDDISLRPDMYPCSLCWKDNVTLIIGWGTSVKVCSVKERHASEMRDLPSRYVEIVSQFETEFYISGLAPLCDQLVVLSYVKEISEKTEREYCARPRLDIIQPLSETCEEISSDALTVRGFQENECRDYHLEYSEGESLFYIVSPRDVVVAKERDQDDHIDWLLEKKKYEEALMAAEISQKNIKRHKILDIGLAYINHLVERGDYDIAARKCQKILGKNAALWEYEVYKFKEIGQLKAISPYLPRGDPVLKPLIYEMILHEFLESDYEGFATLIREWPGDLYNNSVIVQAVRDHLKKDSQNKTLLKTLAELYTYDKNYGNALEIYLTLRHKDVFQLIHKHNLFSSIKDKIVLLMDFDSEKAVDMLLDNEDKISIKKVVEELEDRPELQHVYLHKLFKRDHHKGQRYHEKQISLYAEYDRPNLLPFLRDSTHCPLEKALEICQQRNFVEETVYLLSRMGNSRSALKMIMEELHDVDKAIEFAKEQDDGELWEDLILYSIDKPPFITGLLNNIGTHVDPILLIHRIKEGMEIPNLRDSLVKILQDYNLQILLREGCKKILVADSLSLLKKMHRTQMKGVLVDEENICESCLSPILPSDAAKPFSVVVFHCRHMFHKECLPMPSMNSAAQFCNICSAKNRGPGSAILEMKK
Briefly: pull-down; Glutathione Sepharose beads bound with GST, GST-Rab39A or GST-Rab39B, incubated with the purified protein for one hour, washed, boiled, immunoblot. The conditions noted are these: both partners purified.

For another test, the target named is T2, Myc-C9orf72 (human, UniProt Q96LT7 1-481).
T2 construct: C9orf72, human, cloned from human cDNA; source: E. coli BL21 (DE3), purified (Glutathione Sepharose, eluted by TEV cleavage or GSH); not shown: Myc, N-terminal, kept
T2 sequence (looked up): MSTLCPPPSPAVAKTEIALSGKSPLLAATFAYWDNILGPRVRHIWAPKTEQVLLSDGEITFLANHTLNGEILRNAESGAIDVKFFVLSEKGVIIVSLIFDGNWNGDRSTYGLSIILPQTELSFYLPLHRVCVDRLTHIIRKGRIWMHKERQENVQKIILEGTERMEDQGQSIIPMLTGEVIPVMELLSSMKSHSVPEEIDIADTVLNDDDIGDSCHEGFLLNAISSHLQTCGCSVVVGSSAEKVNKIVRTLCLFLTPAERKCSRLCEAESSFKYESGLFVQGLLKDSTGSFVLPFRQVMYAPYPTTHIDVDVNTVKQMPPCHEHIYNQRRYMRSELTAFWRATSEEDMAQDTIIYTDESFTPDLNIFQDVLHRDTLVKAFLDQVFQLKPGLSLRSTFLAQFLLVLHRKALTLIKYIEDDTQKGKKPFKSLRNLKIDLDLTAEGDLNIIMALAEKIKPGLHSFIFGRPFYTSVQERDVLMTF
The test is described as above. The conditions noted are these: both partners purified.

B1: GST-Rab39A (natural protein, human, UniProt Q14964 1-217, looked up)
chain: METIWIYQFRLIVIGDSTVGKSCLLHRFTQGRFPGLRSPACDPTVGVDFFSRLLEIEPGKRIKLQLWDTAGQERFRSITRSYYRNSVGGFLVFDITNRRSFEHVKDWLEEAKMYVQPFRIVFLLVGHKCDLASQRQVTREEAEKLSADCGMKYIETSAKDATNVEESFTILTRDIYELIKKGEICIQDGWEGVKSGFVPNTVHSSEEAVKPRKECFC
notes: Rab39A, human, cloned from human cDNA; unprenylated; also called GST-R39A; purified Rab39A; source: E. coli BL21 (DE3), purified (Glutathione Sepharose); not shown: GST, N-terminal, kept
B1: the binding result with VPS41-Flag and with Myc-C9orf72 was “binds” throughout.

B2: GST-Rab39B (natural protein, human, UniProt Q96DA2 1-213, looked up)
chain: MEAIWLYQFRLIVIGDSTVGKSCLIRRFTEGRFAQVSDPTVGVDFFSRLVEIEPGKRIKLQIWDTAGQERFRSITRAYYRNSVGGLLLFDITNRRSFQNVHEWLEETKVHVQPYQIVFVLVGHKCDLDTQRQVTRHEAEKLAAAYGMKYIETSARDAINVEKAFTDLTRDIYELVKRGEITIQEGWEGVKSGFVPNVVHSSEEVVKSERRCLC
notes: Rab39B, human, cloned from human cDNA; unprenylated; also called GST-R39B; purified Rab39B; source: E. coli BL21 (DE3), purified (Glutathione Sepharose); not shown: GST, N-terminal, kept
Regarding B2, the binding result with VPS41-Flag and with Myc-C9orf72 was “binds” throughout.

The values are drawn from PMC10567733, “C9orf72-catalyzed GTP loading of Rab39A enables HOPS-mediated membrane tethering and fusion in mammalian autophagy” (Nature Communications, 2023).
